Experimental findings from patent publication US20190248876A1 (NEW YORK UNIVERSITY, published 2019) are described below.

The target of assay [1] is T1, CXCR1 (interleukin 8 receptor alpha chain) (human, UniProt P25024 1-350).
T1 construct: whole, on cells
T1 sequence: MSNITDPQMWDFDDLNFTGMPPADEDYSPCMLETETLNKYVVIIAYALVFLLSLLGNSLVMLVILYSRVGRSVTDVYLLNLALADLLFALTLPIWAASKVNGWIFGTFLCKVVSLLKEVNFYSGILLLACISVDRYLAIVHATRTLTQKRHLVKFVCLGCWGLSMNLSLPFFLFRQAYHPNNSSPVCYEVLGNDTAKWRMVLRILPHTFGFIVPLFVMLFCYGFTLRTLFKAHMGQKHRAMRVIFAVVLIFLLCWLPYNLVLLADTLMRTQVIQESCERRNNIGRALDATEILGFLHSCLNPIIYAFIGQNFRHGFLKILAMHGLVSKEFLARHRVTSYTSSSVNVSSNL
Kind of assay: flow cytometry, GFP-toxin on primary human PMNs (CXCR1/CXCR2+ cells).

In assay [2] the target is T2, CXCR2 (interleukin 8 receptor beta chain) (human, UniProt P25025 1-360).
T2 construct: whole, on cells
T2 sequence: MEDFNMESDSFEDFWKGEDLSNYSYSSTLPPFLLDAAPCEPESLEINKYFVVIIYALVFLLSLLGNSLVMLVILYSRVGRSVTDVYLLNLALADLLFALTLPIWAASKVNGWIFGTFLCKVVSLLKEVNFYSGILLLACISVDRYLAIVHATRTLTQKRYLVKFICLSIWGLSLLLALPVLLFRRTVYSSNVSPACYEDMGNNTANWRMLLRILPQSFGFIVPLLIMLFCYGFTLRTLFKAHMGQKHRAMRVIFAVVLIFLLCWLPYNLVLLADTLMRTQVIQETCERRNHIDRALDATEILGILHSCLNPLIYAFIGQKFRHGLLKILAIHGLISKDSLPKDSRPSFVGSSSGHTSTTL
Described as above.

Assay [3] concerns the target T1, CXCR1 (interleukin 8 receptor alpha …). The assay can be described thus: legend of FIGS. 6A-6E: flow cytometry on PMNs and pulldown. In general terms: A flow cytometer gives signals particle by particle.
Assay [4] concerns the target T2, CXCR2 (interleukin 8 receptor beta …). Described as above.

B1: GFP-LukE (green fluorescent protein-fused LukE) (other)
chain: NTNIENIGDGAEVIKRTEDVSSKKWGVTQNVQFDFVKDKKYNKDALIVKMQGFINSRTSFSDVKGSGYELTKRMIWPFQYNIGLTTKDPNVSLINYLPKNKIETTDVGQTLGYNIGGNFQSAPSIGGNGSFNYSKTISYTQKSYVSEVDKQNSKSVKWGVKANEFVTPDGKKSAHDRYLFVQSPNGPTGSAREYFAPDNQLPPLVQSGFNPSFITTLSHEKGSSDTSEFEISYGRNLDITYATLFPRTGIYAERKHNAFVNRNFVVRYEVNWKTHEIKVKGHN
notes: also called LukE-GFP
As for B1, the binding result in assay [1] and in assay [2] was “binds” throughout.

B2: His-LukE (N-terminal 6xHis-tagged Leukocidin E, S. aureus Newman) (other)
chain: NTNIENIGDGAEVIKRTEDVSSKKWGVTQNVQFDFVKDKKYNKDALIVKMQGFINSRTSFSDVKGSGYELTKRMIWPFQYNIGLTTKDPNVSLINYLPKNKIETTDVGQTLGYNIGGNFQSAPSIGGNGSFNYSKTISYTQKSYVSEVDKQNSKSVKWGVKANEFVTPDGKKSAHDRYLFVQSPNGPTGSAREYFAPDNQLPPLVQSGFNPSFITTLSHEKGSSDTSEFEISYGRNLDITYATLFPRTGIYAERKHNAFVNRNFVVRYEVNWKTHEIKVKGHN
Take B2: the binding result in assay [3] and in assay [4] was “binds” in each case.
